Source: US8580556B2, “Sulfonylurea-responsive repressor proteins” (E. I. du Pont de Nemours and Company, priority 2008, dated 2013)

B1: L1-22: library L1 hit, sulfonylurea-responsive TetR(B) variant, SEQ ID NO: 7 (protein)
chain: MGSRLDKSKVINSALELLNEVGIEGLTTRKLAQKLGVEQPTLYWHVKNKRALLDALAIEMMDRHHTHFCPLEGESWQDFLRNTAKSYRCALLSHRDGAKVCLGTAITEKQYETKENNLAFLCQQGFSLENALYARQAVRVFTLGCVLFDQEMQVAKEERETPTTDSMPPLLRQASELLDHQGAEPAFLFGLELIICGLEKQLKSESGS
modifications: Sulfornylurea responsive repressor L1-22
B2: L1-44: library L1 hit, sulfonylurea-responsive TetR(B) variant, SEQ ID NO: 13 (protein)
chain: MGSRLDKSKVINSALELLNEVGIEGLTTRKLAQKLGVEQPTLYWHVKNKRALLDALAIEMLDRHATHFCPLEGESWQDFLRNNAKSYRCALLSHRDGAKVYLGTAVTEKQYETAENQLAFLCQQGFSLENALYAVKAVAGFTLGCVLWDQESQVAKEERETPTTASMPPLLRQAVELADHQGAEPAFLFGLELIICGLEKQLKCESGS
modifications: Sulfonylurea responsive repressor L1-44
B3: L1-7: library L1 hit, sulfonylurea-responsive TetR(B) variant, SEQ ID NO: 4 (protein)
chain: MGSRLDKSKVINSALELLNEVGIEGLTTRKLAQKLGVEQPTLYWHVKNKRALLDALAIEMLDRHNTHFCPLEGESWQDFLRNNAKSWRCALLSHRDGAKVVLGTAITEKQYETHENPLAFLCQQGFSLENALYAIAAVRRFTLGCVLVDQERQVAKEERETPTTDSMPPLLRQASELQDHQGAEPAFLFGLELIICGLEKQLKCERGS
modifications: Sulfonylurea responsive repressor L1-07
B4: L1-39: library L1 reverse repressor hit (SEQ ID NO: 1206-1213) (protein)
chain: MGSRLDKSKVINSALELLNEVGIEGLTTRKLAQKLGVEQPTLYWHVKNKRALLDALAIEMMDRHQTHFCPLEGESWQDFLRNTAKSYRCALLSHRDGAKVILGTRWTEKQYETRENVLAFLCQQGFSLENALYAWAAVGPFTLGCVLRDQERQVAKEERETPTTDSMPPLLRQALELMDHQGAEPAFLFGLELIICGLEKQLKCESGS
modifications: rSuR L1-39
B5: L1-18: library L1 reverse repressor hit (SEQ ID NO: 1206-1213) (protein)
chain: MGSRLDKSKVINSALELLNEVGIEGLTTRKLAQKLGVEQPTLYWHVKNKRALLDALAIEMLDRHLTHFCPLEGESWQDFLRNNAKSMRCALLSHRDGAKVWLGTGFTEKQYETKENRLAFLCQQGFSLENALYAIRAVSRFTLGCVLQDQEPQVAKEERETPTTDSMPPLLRQAVELFDHQGAEPAFLFGLELIICGLEKQLKCESES
modifications: rSuR L1-18
B6: L1-36: library L1 reverse repressor hit (SEQ ID NO: 1206-1213) (protein)
chain: MGSRLDKSKVINSALELLNEVGIEGLTTRKLAQKLGVEQPTLYWHVKNKRALLDALAIEMADRHHTHFCPLEGESWQDFLRNAAKSMRCALLSHRDGAKVRLGTAWTEKQYETHENVLAFLCQQGFSLENALYALKAVSGFTLGCVLKDQEMQVAKEERETPTTDSMPPLLRQATELVDHQGAEPAFLFGLELIICGLEKQLKCESGS
modifications: rSuR L1-36
B7: L1-41: library L1 reverse repressor hit (SEQ ID NO: 1206-1213) (protein)
chain: MGSRLDKSKVINSALELLNEVGIEGLTTRKLAQKLGVEQPTLYWHVKNKRALLDALAIEMLDRNQTHFCPLEGESWQDFLRNNAKSWRCALLSHRDGAKVMLGTRNTEKQYETAENGLAFLCQQGFSLENALYACRAVWTFTLGCVLDDQETQVAKEERETPTSDSMPPLLRQAMELKDHQGAEPAFLFGLELIICGLEKQLKCESGS
modifications: rSuR L1-41
B8: L1-21: library L1 reverse repressor hit (SEQ ID NO: 1206-1213) (protein)
chain: MGSRLDKSKVINSALELLNEVGIEGLTTRKLAQKLGVEQPTLYWHVKNKRALLDALAIEMLDRHATHFCPLEGESWQDFLRNNAKSFRCALLSHRDGAKVCLGTAGTEKQYETLENCLAFLCQQGFSLENALYARSAVVCFTLGCVLFDQEMQVAKEERETPTTDSMPPLLRQAAELLDHQGAEPAFLFGLELIICGLEKQLKCESGS
modifications: rSuR L1-21

Each molecule was assayed on tetA promoter (PtetA)-lacZ reporter in E. coli KM3. Details: Table 4; anhydrotetracycline 0.4 μM; 48 hrs at 30° C.
Format: cell-based

Molecule	relative β-galactosidase activity, inducer atc
B1	0.0
B2	0.2
B3	0.0

Same assay, conditions: Table 4; chlorimuron 20 μg/ml (20 ppm); 48 hrs at 30° C.

Molecule	relative β-galactosidase activity, inducer Ci
B1	10.4
B2	6.7
B3	16.5

Same assay, conditions: Table 4; chlorsulfuron 20 μg/ml (20 ppm); 48 hrs at 30° C.

Molecule	relative β-galactosidase activity, inducer Cs
B1	0.2
B3	3.1

Same assay, conditions: Table 4; ethametsulfuron 20 μg/ml (20 ppm); 48 hrs at 30° C.

Molecule	relative β-galactosidase activity, inducer Es
B1	0.3
B3	0.1

Same assay, conditions: Table 4; metsulfuron 20 μg/ml (20 ppm); 48 hrs at 30° C.

Molecule	relative β-galactosidase activity, inducer Ms
B1	0.1
B3	0.2

Same assay, conditions: Table 4; nicosulfuron 20 μg/ml (20 ppm); 48 hrs at 30° C.

Molecule	relative β-galactosidase activity, inducer Ns
B1	0.2
B2	0.4
B3	0.1

Same assay, conditions: Table 4; no inducer; 48 hrs at 30° C.

Molecule	relative β-galactosidase activity, inducer None
B1	0.1
B2	0.2
B3	0.0

Same assay, conditions: Table 4; rimsulfuron 20 μg/ml (20 ppm); 48 hrs at 30° C.

Molecule	relative β-galactosidase activity, inducer Rs
B1	0.1
B2	0.3
B3	0.2

Same assay, conditions: Table 4; sulfometuron 20 μg/ml (20 ppm); 48 hrs at 30° C.

Molecule	relative β-galactosidase activity, inducer Sm
B2	0.4
B3	6.4

Same assay, conditions: Table 4; thifensulfuron 20 μg/ml (20 ppm); 48 hrs at 30° C.

Molecule	relative β-galactosidase activity, inducer Ts
B1	0.0
B2	1.9
B3	0.1

Same assay, conditions: Table 4; tribenuron 20 μg/ml (20 ppm); 48 hrs at 30° C.

Molecule	relative β-galactosidase activity, inducer Tb
B1	0.3
B2	0.4
B3	0.2

Same assay, conditions: Table 6, reverse repressor hits; anhydrotetracycline

Molecule	relative β-galactosidase activity, inducer atc
B4	4.92
B5	2.35
B6	1.70
B7	4.21
B8	2.81

Same assay, conditions: Table 6, reverse repressor hits; chlorimuron, same plate assay format as Table 4

Molecule	relative β-galactosidase activity, inducer Ci
B4	0.49
B5	0.36
B6	0.21
B7	0.39
B8	0.07

Same assay, conditions: Table 6, reverse repressor hits; chlorsulfuron, same plate assay format as Table 4

Molecule	relative β-galactosidase activity, inducer Cs
B4	0.89
B5	1.22
B6	0.24
B7	0.61
B8	0.89

Same assay, conditions: Table 6, reverse repressor hits; ethametsulfuron, same plate assay format as Table 4

Molecule	relative β-galactosidase activity, inducer Es
B4	0.60
B5	0.37
B6	0.20
B7	0.18
B8	0.61

Same assay, conditions: Table 6, reverse repressor hits; metsulfuron, same plate assay format as Table 4

Molecule	relative β-galactosidase activity, inducer Ms
B4	0.75
B5	0.79
B6	0.38
B7	0.56
B8	0.89

Same assay, conditions: Table 6, reverse repressor hits; nicosulfuron, same plate assay format as Table 4

Molecule	relative β-galactosidase activity, inducer Ns
B4	3.03
B5	1.44
B6	1.81
B7	2.75
B8	2.74

Same assay, conditions: Table 6, reverse repressor hits; no inducer

Molecule	relative β-galactosidase activity, inducer Blank
B4	3.65
B5	1.34
B6	1.52
B7	4.05
B8	2.88

Same assay, conditions: Table 6, reverse repressor hits; rimsulfuron, same plate assay format as Table 4

Molecule	relative β-galactosidase activity, inducer Rs
B4	4.72
B5	2.55
B6	1.84
B7	4.05
B8	2.31

Same assay, conditions: Table 6, reverse repressor hits; sulfometuron, same plate assay format as Table 4

Molecule	relative β-galactosidase activity, inducer Sm
B4	0.91
B5	0.94
B6	0.50
B7	0.67
B8	2.39

Same assay, conditions: Table 6, reverse repressor hits; thifensulfuron, same plate assay format as Table 4

Molecule	relative β-galactosidase activity, inducer Ts
B4	1.42
B5	1.13
B6	0.48
B7	1.46
B8	0.79

Same assay, conditions: Table 6, reverse repressor hits; tribenuron, same plate assay format as Table 4

Molecule	relative β-galactosidase activity, inducer Tb
B4	0.97
B5	1.65
B6	0.57
B7	1.41
B8	2.13

Same assay, conditions: Table 8; inducers given as numbers without key

Molecule	Inducer preference
B1	3
B2	9 (weak)

Same assay, conditions: Table 10; chlorsulfuron 2 ppm; 48 hours at 30° C.

Molecule	relative β-galactosidase activity, inducer Cs
B1	0.2
B2	1.9

Same assay, conditions: Table 10; ethametsulfuron 2 ppm; 48 hours at 30° C.

Molecule	relative β-galactosidase activity, inducer Es
B1	0.2
B2	1.0

Same assay, conditions: Table 10; metsulfuron 2 ppm; 48 hours at 30° C.

Molecule	relative β-galactosidase activity, inducer Ms
B1	0.2
B2	0.5

Same assay, conditions: Table 10; no inducer; 48 hours at 30° C.

Molecule	relative β-galactosidase activity, No inducer
B1	0.2
B2	0.6

Same assay, conditions: Table 10; sulfometuron 2 ppm; 48 hours at 30° C.

Molecule	relative β-galactosidase activity, inducer Sm
B1	1.8
B2	0.6
